From PMC3713010, “Sox2 Transcriptionally Regulates Pqbp1, an Intellectual Disability-Microcephaly Causative Gene, in Neural Stem Progenitor Cells”

Experiments:
Assay in all cases: EMSA; 10% glycerol, 20 mM HEPES pH 7.8, 45 mM KCl, 10 mM NaCl, 1 mM EDTA, 1 mM DTT, 0.2 ug/uL BSA, 0.1% NP-40, 50 ng poly-dIdC; 20 ng each GST protein; room temperature 30 min (heterodimers 4 C); 6% PAGE 0.25x TBE
Details in all cases: protein: recombinant; tags: GST (N-terminal, pGEX-6P-1); label: 32P-dCTP fill-in of the 5' (dG)5 overhangs of both strands (Methods; control probes are given with GGG)
[1] = biological target: Pax6 DNA-binding domain (BD-Pax6) (Mus musculus (B6), UniProt P63015 190-289)
Outline: (§1)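 DNA binding of transcription factor DNA-binding domains to candidate cis-elements was read from band radioactivity in the expected shift region. The GST-tagged domains came from E. coli BL21 via glutathione-sepharose; probes were annealed oligonucleotides labelled with 32P-dCTP. Each assay used 20 ng protein, 40,000–50,000 cpm probe and 50 ng poly-dIdC for 30 min at room temperature, followed by 6% polyacrylamide electrophoresis in 0.25×TBE at 4°C.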

[2] = biological target: T1, Brn2 DNA-binding domain (BD-Brn2) (Mus musculus (B6), UniProt P31360 336-435)
T1 sequence: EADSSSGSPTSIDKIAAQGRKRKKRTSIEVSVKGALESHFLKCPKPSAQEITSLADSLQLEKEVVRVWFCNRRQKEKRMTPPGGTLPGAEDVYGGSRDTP
Outline: as §1

[3] = biological target: T2, Oct6 DNA-binding domain (BD-Oct6) (Mus musculus (B6), UniProt P21952 317-416)
T2 sequence: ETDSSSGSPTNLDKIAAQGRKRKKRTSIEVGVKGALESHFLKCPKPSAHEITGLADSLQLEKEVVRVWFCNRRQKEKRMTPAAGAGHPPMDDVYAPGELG
Outline: as §1

Chain of Pax6 DNA-binding domain (BD-Pax6) (P63015 190-289): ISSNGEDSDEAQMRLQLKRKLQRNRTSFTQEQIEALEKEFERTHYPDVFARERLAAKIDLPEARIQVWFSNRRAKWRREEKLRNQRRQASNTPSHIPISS

B1: 18 (dsDNA)
DNA 1: GGGGGCTTAGAATTAGTAATTTCTTGATATTGTCTGTTAAGCCCCC
DNA 2: GGGGGCTTAACAGACAATATCAAGAAATTACTAATTCTAAGCCCCC
B1: binds [1]; no binding [2]; binds [3].

B2: 32 (dsDNA)
DNA 1: GGGGGCGTTGCACACAAACCTTAATTTTCCAATCTATTCCCCC
DNA 2: GGGGGAATAGATTGGAAAATTAAGGTTTGTGTGCAACGCCCCC
B2: binds [1]; binds [2]; binds [3].

B3: 19 (dsDNA)
DNA 1: GGGGGGAAGGAAAATTGTTCCCTGACATTTTTGAACTGGGCCCCC
DNA 2: GGGGGCCCAGTTCAAAAATGTCAGGGAACAATTTTCCTTCCCCCC
B3: no binding [1]; no binding [2]; no binding [3].

B4: 33 (dsDNA)
DNA 1: GGGGGATAGTACATTTGTTGTCATTAACAAATCAGTCCCCC
DNA 2: GGGGGACTGATTTGTTAATGACAACAAATGTACTATCCCCC
B4: binds [1]; binds [2]; binds [3].

B5: 34 (dsDNA)
DNA 1: GGGGGTTGTTCCCTTTGACTTCTTGTGACTTTAACAAATTCTAAAGCCCCC
DNA 2: GGGGGCTTTAGAATTTGTTAAAGTCACAAGAAGTCAAAGGGAACAACCCCC
B5: binds [1]; no binding [2]; no binding [3].

B6: 38 (dsDNA)
DNA 1: GGGGGAGGTTTTGATGATTATGAACAAAGCTTCTGTCCCCC
DNA 2: GGGGGACAGAAGCTTTGTTCATAATCATCAAAACCTCCCCC
B6: no binding [1]; no binding [2]; binds [3].

B7: 22 (dsDNA)
DNA 1: GGGGGTACATACAGCAAAATAATCTTTGTAGGGGGGACCCCC
DNA 2: GGGGGTCCCCCCTACAAAGATTATTTTGCTGTATGTACCCCC
B7: no binding [1]; no binding [2]; no binding [3].

B8: 26 (dsDNA)
DNA 1: GGGGGGTGGAGGCTTTGTGTAATCAGTCTGTGTACCCCC
DNA 2: GGGGGTACACAGACTGATTACACAAAGCCTCCACCCCCC
B8: no binding [1]; binds [2]; binds [3].

B9: 23 (dsDNA)
DNA 1: GGGGGAATCTCTATCTTACTTCTTGTAAGTGTGGACAAATGCAGGTTCCCCC
DNA 2: GGGGGAACCTGCATTTGTCCACACTTACAAGAAGTAAGATAGAGATTCCCCC
B9: no binding [1]; no binding [2]; no binding [3].

B10: 28 (dsDNA)
DNA 1: GGGGGAAAAAAGATTCTAATCTTTTTTGTGGTGGTGGCCCCC
DNA 2: GGGGGCCACCACCACAAAAAAGATTAGAATCTTTTTTCCCCC
B10: no binding [1]; no binding [2]; no binding [3].

B11: 30 (dsDNA)
DNA 1: GGGGGTGTCTTCTCCCTAATGATTGTTGTATGACCCCCC
DNA 2: GGGGGGTCATACAACAATCATTAGGGAGAAGACACCCCC
B11: no binding [1]; binds [2]; binds [3].

B12: 16b (dsDNA)
DNA 1: GGGGGGTAGCTTCACAAAGTGATTAACACATGGATACCCCC
DNA 2: GGGGGTATCCATGTGTTAATCACTTTGTGAAGCTACCCCCC
B12: no binding [1]; binds [2]; binds [3].

B13: 31 (dsDNA)
DNA 1: GGGGGTCCTCTCCTTTGTTTTGTCCTCACACCCCCAGCTGACCAGGTGCCCCC
DNA 2: GGGGGCACCTGGTCAGCTGGGGGTGTGAGGACAAAACAAAGGAGAGGACCCCC
B13: no binding [1]; no binding [2]; no binding [3].

B14: 39 (dsDNA)
DNA 1: GGGGGTTCAGGTTTTTGTAGGAACTTAAATTTTATGATTAGCCCCC
DNA 2: GGGGGCTAATCATAAAATTTAAGTTCCTACAAAAACCTGAACCCCC
B14: binds [1]; binds [2]; binds [3].

B15: 20 (dsDNA)
DNA 1: GGGGGCTCAGAGCTAGAAATATTTGTGGAATGGGCCCCC
DNA 2: GGGGGCCCATTCCACAAATATTTCTAGCTCTGAGCCCCC
B15: no binding [1]; no binding [2]; no binding [3].

B16: 21 (dsDNA)
DNA 1: GGGGGCAGAATCATTTGTGTTTTCCCATTTTTGCCAGGGGCCCCC
DNA 2: GGGGGCCCCTGGCAAAAATGGGAAAACACAAATGATTCTGCCCCC
B16: no binding [1]; no binding [2]; no binding [3].

B17: 29 (dsDNA)
DNA 1: GGGGGAAAAACTTTTTGTTATTTCATTTTTATTAGTGGCCCCC
DNA 2: GGGGGCCACTAATAAAAATGAAATAACAAAAAGTTTTTCCCCC
B17: no binding [1]; no binding [2]; binds [3].

B18: 35 (dsDNA)
DNA 1: GGGGGGTTTCTCTAATTAATAGACTTCATTGTTCAAAACTATTTTACATTTGTTCCCCC
DNA 2: GGGGGAACAAATGTAAAATAGTTTTGAACAATGAAGTCTATTAATTAGAGAAACCCCCC
B18: binds [1]; binds [2]; binds [3].

B19: 25 (dsDNA)
DNA 1: GGGGGCAGATAACTTTGTCCTTTTTGATTTTGAGTGAAGACCCCC
DNA 2: GGGGGTCTTCACTCAAAATCAAAAAGGACAAAGTTATCTGCCCCC
B19: no binding [1]; no binding [2]; no binding [3].

B20: 17 (dsDNA)
DNA 1: GGGGGTTTAAAGATTTGTTTCTTTATTATATGTAAGTACCCCC
DNA 2: GGGGGTACTTACATATAATAAAGAAACAAATCTTTAAACCCCC
B20: no binding [1]; binds [2]; binds [3].

B21: 36 (dsDNA)
DNA 1: GGGGGTGCATACATTTGTAATTCATTTAGGTGGTTTTCCCCC
DNA 2: GGGGGAAAACCACCTAAATGAATTACAAATGTATGCACCCCC
B21: binds [1]; binds [2]; binds [3].

B22: 37 (dsDNA)
DNA 1: GGGGGTTTCATGGTTTGTTAGCTATTCTCTTATCACCCCCC
DNA 2: GGGGGGTGATAAGAGAATAGCTAACAAACCATGAAACCCCC
B22: no binding [1]; no binding [2]; no binding [3].

B23: 27 (dsDNA)
DNA 1: GGGGGCACACCTGTTTGTTTTCCACTTCACAGAGGAGGCATAGGAAACTCCCCC
DNA 2: GGGGGAGTTTCCTATGCCTCCTCTGTGAAGTGGAAAACAAACAGGTGTGCCCCC
B23: no binding [1]; no binding [2]; no binding [3].

B24: 16a (dsDNA)
DNA 1: GGGGGGTGAACCCTTTCAGATTTAGTGACGTAGCTTCACAAAGTGATTAACCCCC
DNA 2: GGGGGTTAATCACTTTGTGAAGCTACGTCACTAAATCTGAAAGGGTTCACCCCCC
B24: no binding [1]; binds [2]; binds [3].

B25: 24 (dsDNA)
DNA 1: GGGGGCTTGTATCTTTGTATGTTCACAGAAAGCAAAGTAGCGTGGCCCCC
DNA 2: GGGGGCCACGCTACTTTGCTTTCTGTGAACATACAAAGATACAAGCCCCC
B25: no binding [1]; no binding [2]; no binding [3].
